Drawing on publication PMC7686228, this text covers stoichiometry N for two substances.

Test [1] deals with parDMFase large subunit expressed and purified without the small subunit (Paracoccus sp. strain DMF). Description: SEC; large subunit purified without the small subunit; data not shown.
Test [2] concerns the target parDMFase α2β2 complex (the 'dimer', 200 kDa) (Paracoccus sp. strain DMF). Put plainly: cryo-EM structure; purified parDMFase on ice; data set with 200 mM NaCl, tetramer (α2β2)2 reconstruction at 2.8 Å (initial mixed data set: 3.8 Å); step: dimer of α2β2 dimers.

Substance “parDMFase large subunit expressed and purified without the small subunit (enzyme)” had a stoichiometry N in test [1] of 2.

“parDMFase α2β2 complex (the 'dimer', 200 kDa)” showed a stoichiometry N in test [2] of 2.

Broadly, the stoichiometry N is a count of units in the complex or per binding partner.
